From publication PMC3044117

Target: HA-tagged Patched 1 (Ptc1), expressed in 293T cells (UniProt Q61115)
Experiment: pull-down

UniProt Q61115, sequence (Q61115 whole entry): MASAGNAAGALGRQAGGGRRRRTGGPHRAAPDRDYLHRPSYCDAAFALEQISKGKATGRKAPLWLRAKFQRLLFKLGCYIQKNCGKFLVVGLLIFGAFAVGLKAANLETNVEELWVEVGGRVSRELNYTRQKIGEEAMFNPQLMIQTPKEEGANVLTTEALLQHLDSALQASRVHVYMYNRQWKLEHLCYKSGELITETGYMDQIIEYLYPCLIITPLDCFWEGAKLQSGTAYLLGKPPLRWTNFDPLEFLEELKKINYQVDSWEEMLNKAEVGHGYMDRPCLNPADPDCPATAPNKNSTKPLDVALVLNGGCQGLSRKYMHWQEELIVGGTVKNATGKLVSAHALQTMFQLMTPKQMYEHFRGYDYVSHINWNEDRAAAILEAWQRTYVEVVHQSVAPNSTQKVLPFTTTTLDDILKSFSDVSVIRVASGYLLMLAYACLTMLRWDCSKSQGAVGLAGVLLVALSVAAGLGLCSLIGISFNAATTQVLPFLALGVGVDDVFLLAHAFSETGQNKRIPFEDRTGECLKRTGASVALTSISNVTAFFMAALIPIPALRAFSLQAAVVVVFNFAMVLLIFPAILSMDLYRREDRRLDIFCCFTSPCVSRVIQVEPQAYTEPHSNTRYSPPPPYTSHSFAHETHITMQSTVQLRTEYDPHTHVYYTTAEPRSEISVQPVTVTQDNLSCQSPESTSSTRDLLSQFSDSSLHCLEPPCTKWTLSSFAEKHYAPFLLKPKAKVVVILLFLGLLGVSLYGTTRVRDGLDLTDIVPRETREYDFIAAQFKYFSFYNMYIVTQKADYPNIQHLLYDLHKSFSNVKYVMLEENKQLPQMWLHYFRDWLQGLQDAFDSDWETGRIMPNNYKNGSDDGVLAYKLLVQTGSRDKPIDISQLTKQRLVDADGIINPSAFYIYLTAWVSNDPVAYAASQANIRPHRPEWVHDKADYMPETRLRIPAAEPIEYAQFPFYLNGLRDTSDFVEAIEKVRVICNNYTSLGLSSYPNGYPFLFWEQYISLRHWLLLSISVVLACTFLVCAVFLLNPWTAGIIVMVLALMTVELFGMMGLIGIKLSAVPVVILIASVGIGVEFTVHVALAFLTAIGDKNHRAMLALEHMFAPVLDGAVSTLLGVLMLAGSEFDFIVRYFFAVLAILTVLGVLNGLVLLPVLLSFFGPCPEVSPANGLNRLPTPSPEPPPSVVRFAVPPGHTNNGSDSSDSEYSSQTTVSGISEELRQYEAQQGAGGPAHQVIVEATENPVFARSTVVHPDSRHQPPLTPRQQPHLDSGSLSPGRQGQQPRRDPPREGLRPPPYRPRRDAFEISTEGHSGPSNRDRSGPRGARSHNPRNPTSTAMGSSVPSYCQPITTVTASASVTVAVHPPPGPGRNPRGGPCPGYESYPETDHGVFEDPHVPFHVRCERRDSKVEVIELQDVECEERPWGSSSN

GPC5-AP fusion protein in conditioned medium
Kd: 37 nM
